Experimental data reported in paper PMC10011731.

Target: Taxol-stabilized microtubules (bovine brain tubulin) (bovine) (UniProt Q6B856)
Test: TIRF microscopy of purified proteins on surface-bound microtubules (in vitro reconstitution); Taxol-stabilised biotinylated microtubules bound to NeutrAvidin coverslips; 100 nM CLASP2α-GFP or 100 nM GFP-L-TOG2-S with […] TRITC-phalloidin F-actin flowed in; imaging buffer with MRB80, Taxol, 0.2 mM ATP; 35°C; PCC after 10 min, time-lapse up to 40 min

Pearson correlation coefficient (PCC) of the CLASP2α-GFP and microtubule signals: 0.88
Substance: His-CLASP2α-EGFP-Strep (natural protein)
